Drawing on article PMC9463536 (The Journal of Biological Chemistry, 2022), this text covers Kd for 1 molecule.

This experiment addresses T1, human claudin-4, biotinylated with NHS-PEG4-biotin (human, UniProt O14493 1-209).
T1 construct: also called biotinylated claudin-4
T1 sequence: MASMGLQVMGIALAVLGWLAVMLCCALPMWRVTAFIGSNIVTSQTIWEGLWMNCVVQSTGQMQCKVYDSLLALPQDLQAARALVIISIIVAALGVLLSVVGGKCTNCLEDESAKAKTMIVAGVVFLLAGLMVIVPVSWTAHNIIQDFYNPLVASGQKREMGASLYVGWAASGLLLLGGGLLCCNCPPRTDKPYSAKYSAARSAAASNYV
Nature of the experiment: BLI. The conditions noted are these: both partners purified.

B1: cCpE^1 (cCpE^[change]) (domain or fragment)
chain: KEILDLAAATERLNLTDALNSNPAGNLYDWRSSNSYPWTQKLNLHLTITATGQKYRILASKIVDFNIYSNNFNNLVKLEQSLGDGVKDHYVDISLDAGQYVLVMKANSSYSGNYPYSILFQKF
What is called Kd is a measure of binding affinity in units of concentration. On to B1, for which the Kd is around 3 nM.
